From patent US20060134122A1, “Peptides of syndecan-1 for inhibition of cancer” (priority 2004, published 2006)

Experiments:
[1] = target: αvβ3 integrin (human, on MDA-MB-231, MDA-MB-435, HAEC and HMEC cells) (human) (UniProt P06756); experiment: cell-based or functional assay
[2] = system: MCF-7 human carcinoma cells; experiment: Cell spreading assay, MCF-7; type: cell-based; settings: 10 μg/mL VN, 2 h; LM609 30 μg/mL; mAb 13 25 μg/mL; GST-mS1ED 20 μM
Protocol: FIG. 3—MDA-MB-435, but not MCF-7, human carcinoma cells display functional coupling of Sdc-1 and αvβ3 integrins on VN. Depicted are phalloidin-stained cells 2 h after plating on wells coated with 10 μg/mL VN (upper half) or FN (lower half) in plating medium alone or medium containing either 30 μg/mL mAb LM609, 25 μg/mL mAb 13, 20 μM GST-mS1ED or -mS4ED. Bar, 50 μm.
MDA-MB-435, but not MCF-7, human carcinoma cells display functional coupling of Sdc-1 and αvβ3 integrin on VN. To test whether activation of αvβ3 integrin activation on matrix is also functionally coupled to Sdc-1, MDA-MB-435 and MCF-7 cells were plated on either VN or FN (FIG. 3). MDA-MB-435 cells spread on VN and require αvβ3 integrins for this activity as spreading is blocked by mAb LM609. Although the MCF-7 cells spread on VN, this spreading is unaffected by LM609; these cells rely instead on αvβ1 integrins as spreading is blocked by either mAb 13 (FIG. 3) or αv-specific mAb M9 (unpublished data; de Vries et al., 1986). Neither cell type utilizes αvβ3 to respond to FN, rather both utilize […] that are blocked by either mAb 13 (FIG. 3) or mAb 16 (unpublished data).
To test whether GST-mS1ED specifically blocks αvβ3 integrin-dependent spreading or acts as a general inhibitor to all αv integrin heterodimers, MDA-MB-435 and MCF-7 cells were plated on VN in the presence of 20 μM GST-mS1ED. […]

αvβ3 integrin = target: T1, αvβ3 integrin (Homo sapiens, UniProt P05106+P06756); experiment: WOW1 Fab binding (activated αvβ3 integrin), MDA-MB-231; type: cell-based; settings: cells adherent to mAb B-B4, pre-treated with 1 μg/mL mAb 13; GST-mS1ED 20 μM
T1 construct: endogenous in cells; host or cells: MDA-MB-435 (A4) and MDA-MB-231 (A5) human mammary carcinoma cells
T1 sequence (P06756 31-889 limits assumed): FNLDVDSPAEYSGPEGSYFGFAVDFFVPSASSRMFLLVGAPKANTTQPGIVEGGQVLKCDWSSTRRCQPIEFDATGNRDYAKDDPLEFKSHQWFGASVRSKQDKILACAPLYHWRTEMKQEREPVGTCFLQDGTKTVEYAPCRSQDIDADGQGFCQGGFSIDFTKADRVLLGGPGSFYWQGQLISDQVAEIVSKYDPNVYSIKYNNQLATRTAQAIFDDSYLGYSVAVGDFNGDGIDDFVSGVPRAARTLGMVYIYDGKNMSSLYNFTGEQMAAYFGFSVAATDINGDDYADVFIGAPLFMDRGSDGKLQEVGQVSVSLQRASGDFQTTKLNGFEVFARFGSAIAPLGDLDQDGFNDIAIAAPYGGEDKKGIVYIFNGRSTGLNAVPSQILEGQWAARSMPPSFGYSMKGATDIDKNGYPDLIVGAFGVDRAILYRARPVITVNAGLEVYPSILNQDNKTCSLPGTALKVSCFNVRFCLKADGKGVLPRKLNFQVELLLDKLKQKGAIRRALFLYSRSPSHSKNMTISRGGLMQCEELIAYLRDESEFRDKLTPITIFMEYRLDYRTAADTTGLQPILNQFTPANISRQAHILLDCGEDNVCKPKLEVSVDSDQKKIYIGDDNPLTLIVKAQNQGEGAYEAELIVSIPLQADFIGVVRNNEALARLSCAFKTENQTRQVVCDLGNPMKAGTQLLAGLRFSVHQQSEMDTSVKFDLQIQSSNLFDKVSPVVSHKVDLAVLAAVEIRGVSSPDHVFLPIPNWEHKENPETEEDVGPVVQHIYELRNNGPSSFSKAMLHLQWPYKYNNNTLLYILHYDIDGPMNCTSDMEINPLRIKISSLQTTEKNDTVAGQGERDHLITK
T1 sequence (P06756 891-1048 limits assumed): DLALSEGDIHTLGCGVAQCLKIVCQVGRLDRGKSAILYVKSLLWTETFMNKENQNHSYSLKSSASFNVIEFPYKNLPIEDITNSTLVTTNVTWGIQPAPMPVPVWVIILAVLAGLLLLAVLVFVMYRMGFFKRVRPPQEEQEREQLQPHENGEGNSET
T1 sequence (P05106 27-788): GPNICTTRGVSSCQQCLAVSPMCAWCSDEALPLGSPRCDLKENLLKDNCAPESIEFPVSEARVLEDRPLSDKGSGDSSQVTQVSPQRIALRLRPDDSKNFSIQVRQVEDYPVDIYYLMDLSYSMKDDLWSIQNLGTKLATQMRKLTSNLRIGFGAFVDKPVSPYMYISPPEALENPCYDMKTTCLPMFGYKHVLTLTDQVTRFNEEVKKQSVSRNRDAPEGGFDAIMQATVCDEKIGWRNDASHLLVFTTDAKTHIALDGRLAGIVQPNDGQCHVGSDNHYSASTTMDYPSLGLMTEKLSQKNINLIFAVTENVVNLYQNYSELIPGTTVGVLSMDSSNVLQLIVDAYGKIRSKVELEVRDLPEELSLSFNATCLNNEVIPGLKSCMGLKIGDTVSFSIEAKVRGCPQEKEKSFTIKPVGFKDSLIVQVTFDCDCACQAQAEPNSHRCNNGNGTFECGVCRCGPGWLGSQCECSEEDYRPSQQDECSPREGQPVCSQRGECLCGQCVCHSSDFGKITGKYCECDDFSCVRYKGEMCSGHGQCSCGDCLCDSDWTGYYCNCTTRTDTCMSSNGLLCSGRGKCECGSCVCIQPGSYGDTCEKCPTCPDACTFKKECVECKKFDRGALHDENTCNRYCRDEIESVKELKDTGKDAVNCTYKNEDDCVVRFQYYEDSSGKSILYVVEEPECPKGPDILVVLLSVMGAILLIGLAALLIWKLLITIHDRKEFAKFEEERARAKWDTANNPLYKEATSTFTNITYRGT
Protocol: FIGS. 2A-C—Sdc-1 adhesion-mediated cell spreading correlates with αvβ3 integrin. expression and activity. (FIG. 2A) FACS analysis of αvβ3 integrin expression (mAb LM609) in human mammary carcinoma cells against an IgG isotype control. (FIG. 2B) Depicted on split panels are phalloidin-stained MDA-MB-435 (upper half) and MCF-7 (lower half) cells 2 h after plating on wells coated with mAb B-B4 in plating medium alone or medium containing either 30 μg/mL mAb LM609, 1 μg/mL mAb 13 or 20 μM GST-mS1ED. Bar, 50 μm. (FIG. 2C) Untreated MDA-MB-435, MDA-MB-231 and MCF-7 cells (columns 1 and 4) and cells pretreated in suspension with 1 μg/mL mAb 13 (columns 2 and 3) were seeded on wells coated with either mAb B-B4 or COL I in plating medium alone (columns 1, 2 and 4) or medium containing 20 μM GST-mS1ED (column 3). Cells were incubated at 37° C. for 2 h, fixed, permeabilized and stained with WOW1 and an Alexa 488-conjugated secondary. Panel insets are corresponding phase contrast pictures. Bar, 20 μm.
To verify that cell spreading induced upon Sdc-1 ligation correlates with αvβ3activation, the inventors relied upon binding of the ligand-mimetic WOW1 mouse Fab—a probe that detects activated, but unligated αvβ3 integrin. MDA-MB-435 cells adherent to mAb B-B4 display strong binding of WOW1 both centrally and within puncta at the spreading margin of cells (FIG. 2C). […]

[3] = system: MDA-MB-231 and MB-435 cells; experiment: Migration across coated filters (modified Boyden chamber), MDA-MB-231 and MB-435; type: cell-based, human; settings: S1ED pAb 250 μg/mL or GST-mS1ED 20 μM; 16 h
Protocol: (§1) FIGS. 5A-B—Sdc-1ED Inhibitors disrupt αvβ3 integrin-dependent cell migration on VN. MDA-MB-231, MDA-MB-435 and MCF-7 cells in plating medium alone (black-filled) or in plating medium containing either 20 μM GST-mS1ED (open) or 250 μg/mL polyclonal mS1ED antibodies (gray-filled) were seeded on polycarbonate filters coated with either 10 μg/ml of VN (FIG. 5A) or FN (FIG. 5B) in a modified Boyden chamber. After 16 h, cells that migrated through the filter in response to 10% FBS in the lower chamber were quantified by colorimetric staining.
(§2) To test the role of the S1ED in αvβ3 integrin dependent signaling in another functional assay, cells were examined for their ability to migrate across VN or FN-coated filters in the presence or absence of S1ED pAb (250 μg/mL) or GST-mS1ED recombinant protein (20 μM). Migration of treated MDA-MB-231 and MB-435 cells across VN is suppressed 2- to 4-fold relative to untreated controls (FIG. 5A). MCF-7 cell migration across VN, which is αvβ1 dependent, is unaffected by either treatment.

MCF-7 cells = experiment: Migration across coated filters (modified Boyden chamber), MCF-7; type: cell-based, human; settings: S1ED pAb 250 μg/mL or GST-mS1ED 20 μM; 16 h
Protocol: as §1, §2

[4] = system: MDA-MB-231 human mammary carcinoma cells; settings: no integrin ligand; Beauvais and Rapraeger, 2003; cited from earlier work

Chain of αvβ3 integrin (human, on MDA-MB-231, MDA-MB-435, HAEC and HMEC cells) (human) (P06756 31-1048, chain 1 of 2): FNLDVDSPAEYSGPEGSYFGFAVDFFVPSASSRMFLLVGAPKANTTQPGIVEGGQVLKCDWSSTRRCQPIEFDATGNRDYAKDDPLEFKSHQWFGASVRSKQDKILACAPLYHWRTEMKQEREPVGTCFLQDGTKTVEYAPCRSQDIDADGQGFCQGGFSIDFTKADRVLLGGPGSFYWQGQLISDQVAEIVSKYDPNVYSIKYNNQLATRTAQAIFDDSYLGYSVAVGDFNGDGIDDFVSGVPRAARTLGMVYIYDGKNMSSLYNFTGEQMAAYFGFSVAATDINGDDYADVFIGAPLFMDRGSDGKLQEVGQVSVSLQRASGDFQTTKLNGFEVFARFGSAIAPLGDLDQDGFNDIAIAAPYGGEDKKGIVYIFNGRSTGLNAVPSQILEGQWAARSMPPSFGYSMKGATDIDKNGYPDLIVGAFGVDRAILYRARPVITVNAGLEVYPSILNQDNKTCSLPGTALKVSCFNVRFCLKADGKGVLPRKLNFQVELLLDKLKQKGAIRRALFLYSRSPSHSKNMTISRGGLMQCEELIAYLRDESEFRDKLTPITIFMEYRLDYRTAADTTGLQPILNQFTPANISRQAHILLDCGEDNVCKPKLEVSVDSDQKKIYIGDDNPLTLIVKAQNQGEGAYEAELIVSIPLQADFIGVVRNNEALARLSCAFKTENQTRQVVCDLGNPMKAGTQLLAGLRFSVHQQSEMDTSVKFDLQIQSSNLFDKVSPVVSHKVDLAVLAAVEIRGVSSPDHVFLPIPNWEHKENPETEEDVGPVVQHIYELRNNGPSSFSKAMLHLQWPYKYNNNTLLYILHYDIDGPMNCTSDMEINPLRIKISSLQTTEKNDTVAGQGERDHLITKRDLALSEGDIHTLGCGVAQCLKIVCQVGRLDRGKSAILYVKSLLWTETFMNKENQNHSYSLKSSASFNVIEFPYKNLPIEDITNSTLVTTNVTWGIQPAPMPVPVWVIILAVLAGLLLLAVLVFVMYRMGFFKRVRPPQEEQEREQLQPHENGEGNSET
Chain of αvβ3 integrin (human, on MDA-MB-231, MDA-MB-435, HAEC and HMEC cells) (human) (P05106 27-788, chain 2 of 2, further chain): as the sequence (P05106 27-788) above

B1: GST-mS1ED: recombinant mouse syndecan-1 ectodomain expressed as a fusion protein with GST (protein)
chain: QIVAVNVPPEDQDGSGDDSDNFSGSGTGALPDTLSRQTPSTWKDVWLLTATPTAPEPTSSNTETAFTSVLPAGEKPEEGEPVLHVEAEPGFTARDKEKEVTTRPRETVQLPITQRASTVRVTTAQAAVTSHPHGGMQPGLHETSAPTAPGQPDHQPPRVEGGGTSVIKEVVEDGTANQLPAGEGSGEQDFTFETSGENTAVAAVEPGLRNQPPVDEGATGASQSLLDRKEVLG
modifications: left off: a dimerising Fc or GST
notes: recombinant mouse syndecan-1 ectodomain expressed as a fusion protein with GST
[1]
  migration of MDA-MB-231 and MB-435 cells across VN, 20 µM GST-mS1ED: 2 to 4 fold
[2]
  cell spreading on VN: Only the MDA-MB-435 cells fail to spread
αvβ3 integrin
  WOW1 binding (αvβ3 activation): WOW1 staining is also lost
[3]
  cell migration across FN: neither inhibitor has any effect
MCF-7 cells
  cell migration across FN: neither inhibitor has any effect
  cell migration across VN: unaffected
[4]
  collaboration between Sdc-1 and αvβ3 integrins in cells adherent to Sdc-1-specific antibody: disrupted
